Test results reported in publication PMC4694715.

How the values were obtained:
[1] = molecular target: CD20 (human (endogenous in Ramos)) (UniProt P11836)
[2] = molecular target: CD20 (human (endogenous in Ramos)) (UniProt P11836); remark: listed apart in the source
[3] = molecular target: CD20 (human (endogenous in Ramos)) (UniProt P11836); test: flow cytometry on cells; 1E6 Ramos cells incubated with 0.5μg (16.7nM) or 1μg (33.3nM) of the RTX variant (non-saturating amounts); bound antibody detected with FITC murine monoclonal anti human kappa light chain antibody; read-out: MFI of the variant divided by MFI of the IgG1 control

UniProt P11836, sequence (P11836 whole entry): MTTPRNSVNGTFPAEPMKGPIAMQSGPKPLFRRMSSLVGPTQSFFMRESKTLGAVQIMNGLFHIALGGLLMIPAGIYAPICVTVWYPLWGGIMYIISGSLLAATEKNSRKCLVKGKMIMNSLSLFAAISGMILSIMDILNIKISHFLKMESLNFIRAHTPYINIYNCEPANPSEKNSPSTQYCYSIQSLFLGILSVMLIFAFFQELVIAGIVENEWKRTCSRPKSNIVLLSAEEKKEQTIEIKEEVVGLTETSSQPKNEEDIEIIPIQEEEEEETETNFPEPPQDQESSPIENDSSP

apoptosis of Ramos cells after 24h (AnnexinV-FITC positive cells, absolute), 2000ng antibody, no crosslinker [1] | apoptosis of Ramos cells after 24h, normalised to the IgG1 control without crosslinker (100%) (% of IgG1 control) [2] | IgG1 signal ratio (MFI of RTX variant divided by MFI of IgG1 control) at 0.5μg [3] | IgG1 signal ratio (MFI of RTX variant divided by MFI of IgG1 control) at 1μg [3] | Substance
41 % of cells | 441 | – | – | Rituximab IgG4P (antibody)
11 % of cells | – | – | – | Rituximab IgG1 a1 (antibody)
49 % of cells | 546 | 0.37 | 0.42 | Rituximab IgG2 (antibody)
